Source: the supplement of paper PMC12764529
± gives the half width of the 95% confidence interval.

Legend:
[1] = folding stability dG unfold (combined trypsin and chymotrypsin); higher = more stable
How it was run: (§1)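 Only designs with AlphaFold2 dimer inter-PAE above 15 were retained; each was a mini-protein under 80 residues with no cysteine, in a PA-tagged cDNA display construct. After digestion with trypsin and chymotrypsin and sequencing, K50 was inferred by Bayesian fitting of counts, and unfolding free energy was derived per protease or combined against a sequence-predicted unfolded-state K50 and a shared folded-state K50.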

[2] = folding stability dG unfold from chymotrypsin proteolysis; higher = more stable
How it was run: as §1

[3] = folding stability dG unfold from trypsin proteolysis; higher = more stable
How it was run: as §1

Sequence	folding stability dG unfold [1] [kcal/mol]	folding stability dG unfold [2] [kcal/mol]	folding stability dG unfold [3] [kcal/mol]
SAGGSMTFKAEVTPLDTFPLFDANGKPVAEVKVYTATIEFPDGSRVEIRGVEVGDELYILEIRPLDSAGGSA [r2_158_TrMRF]	2.16 ± 0.13	2.32 ± 0.13	1.54 ± 0.084
SAGGSMTISYDPSTGTVTITDPTVPLNTPRSITITFPGGETFTATLTPLPDNSATATYTVVPTAGASAGGSA [r2_89_JUSTAS]	1.23 ± 0.16	1.09 ± 0.1	1.26 ± 0.036
SAGGSMTTTTVTVTDPAGNTTTYTFPSSVPLEEIVEAVSKALGRPVTVLSVTTDPSGTTTVTLAVPGSAGGS [r8_285_JUSTAS]	5.17 ± 0.13	5.131 ± 0.047	4.33 ± 0.3
SAGGSMTVETSISRLPDGTYTVTVTFTLKNPDGSPVGTITIPVTMSPEVLAKTPLETVVAEAVAAASAGGSA [r2_421_JUSTAS]	3.09 ± 0.077	3.48 ± 0.048	2.44 ± 0.056
SAGGSMVEVIVIDKDGKEHKILIPPELKPEEVAEKVKKFLEDEGYEVESIEIEELPEGFSKVIVNASAGGSA [r2_148_TrMRF]	1.68 ± 0.21	1.45 ± 0.18	2.05 ± 0.078
SAGGSMVKLKVTSVSREGNYLTVTAELGNLIVEIRFDEGTDRFEVKVSEKPLVLGEEEIEELAKASSAGGSA [r2_482_TrMRF]	2.08 ± 0.072	2.38 ± 0.043	1.52 ± 0.064
SAGGSMVVTVSTDSTSEPTTVITITIPPELGNLTDEEKKAIAEEIAKKYPNTKFTFTPTTITITRKSAGGSA [r2_256_JUSTAS]	2.37 ± 0.23	2.81 ± 0.054	1.77 ± 0.047
SAGGSMVVVVKLKDGKKIELSVEELKKLAEELGLEPEEEDKEERLERIAKALAEKLGLEVEKVEVLSAGGSA [r2_83_TrROS_Hall]	3.33 ± 0.35	2.74 ± 0.22	4.09 ± 0.29
SAGGSNFKPLEAEIYRNPDGKDVVQIMITFPDPNGKPFTVNIWIYPDGKIKISVYYNGKKEEIEIPSAGGSA [r2_182_TrROS]	2.96 ± 0.18	3.57 ± 0.12	1.95 ± 0.13
SAGGSPEEIANEVKEKILKELPPGVKVEVSVEVTPEGATVTVKVPEGKEYTVKVEGDKIVEIKLLKKSAGGS [r8_287_JUSTAS]	1.51 ± 0.28	1.92 ± 0.057	0.921 ± 0.081
SAGGSPERSAEELAEELAERIRELLREEAASFELPLHVHIVVPDPEGRRREFDVEVHVRVEVPEDARSAGGS [r16_550_TrMRF]	1.05 ± 0.054	1.14 ± 0.034	0.898 ± 0.025
SAGGSPETKTISFKYPGNGMRIMVQVERDPADGKKKITINMENNPYMAERAKKALEELGLPVEIHPSAGGSA [r2_30_TrROS]	1.32 ± 0.12	1.14 ± 0.12	1.38 ± 0.13
SAGGSPIISTEKSSSGVTTITFPDGTVVTEVTTPLPDGTVLTTTTVTPPNAPVSTTTTTDPVPPGLPSAGGS [r16_211_JUSTAS]	0.767 ± 0.062	0.702 ± 0.027	0.775 ± 0.062
SAGGSPLLVLHIRLRRPGEEREIVIPSDLIEDMPLEEIEEILRALPWIDEAEIELEEFPPLRPDELSAGGSA [r2_282_TrMRF]	1.67 ± 0.089	1.98 ± 0.11	1.21 ± 0.026
SAGGSPNFRIHIEGPEGKTLQYPVDPGFNKPDIQDWLQELGNIEIDQHPNDGWITIRIPKDALDQFSAGGSA [r2_164_TrROS]	0.161 ± 0.27	0.0882 ± 0.21	0.226 ± 0.12
SAGGSPNIKITSKEKEGSKLKYTIQTPDKTITIEYSEGKATFKFPDGSTKTLTGKGSLEKAIKEAVLSSAGG [r13_98_JUSTAS]	1.59 ± 0.2	1.99 ± 0.25	0.936 ± 0.11
SAGGSPPDKWVTLPFTMRYPDNGLEVEVNIVINPDDGKIQVEMEVYDNGKPKQEVPATIPADEIKLSAGGSA [r2_188_TrROS]	0.699 ± 0.13	0.594 ± 0.23	0.639 ± 0.035
SAGGSPPNITYELTFPDGTVYTDPLPGKSLEELKEYVKSLNFTNVEVTVYEESSEVSTYKVTIPPNESAGGS [r16_700_JUSTAS]	0.437 ± 0.12	0.57 ± 0.13	0.169 ± 0.079
SAGGSPSTVVPTLLTLEIVKKDEKGNETSETIPVLVEDSPEEARERLIEEIEKKYGAEVVKVTVKPESAGGS [r16_511_JUSTAS]	-0.608 ± 0.18	-1.22 ± 0.27	-0.576 ± 0.07
SAGGSQRFRITELVVPEDDGNLFIRVRGPNGKSMFMPASDIEKARKNGKEIEFPFPNGQPFEVEIISAGGSA [r2_301_TrROS]	-0.411 ± 0.33	-0.461 ± 0.66	-0.34 ± 0.44
SAGGSRTVLLYDPDNPRPYIVEYDPATGTLRIYDPETGELVAEFPIPDLKDIEAPVVPNGILLGAIVDSAGG [r13_720_TrMRF]	1.68 ± 0.075	1.998 ± 0.018	1.03 ± 0.023
SAGGSSGSIDRVELLSFDPEKGIALVRFPSFGSIQVIPIPPGKNSLKVKVINKNGEPFEFTFSLPLSAGGSA [r2_132_TrMRF]	3 ± 0.07	3.1 ± 0.043	2.82 ± 0.082
SAGGSSITVTDETTVEVSPTGSPTGPPVATVTTTTSTTTTTYYDPKTGTSTETTTTTTTTTTSTGASAGGSA [r2_269_JUSTAS]	0.382 ± 0.15	0.192 ± 0.11	0.603 ± 0.067
SAGGSSMEVEIDTSKSTTTYTHPSGEKVATRSLVLTPPSPGDPLRFLNVEFEKLPDGSVVVKKIVGSAGGSA [r2_362_JUSTAS]	-0.0806 ± 0.22	-0.142 ± 0.32	-0.338 ± 0.17
SAGGSSMYKTTTTPLSTFPVRDENGNFLEETKFEKTTVTYPDGSTVTVLKIEVGGKTFTLEVTPTPSAGGSA [r2_158_JUSTAS]	0.565 ± 0.18	0.952 ± 0.18	0.0145 ± 0.075
SAGGSSPELAAERLAEELRRQGYAVREVVVTYDPAGTVTVSAVIEDPADPAATSTLTVTVPLAELGSAGGSA [r2_384_JUSTAS]	2.73 ± 0.046	2.91 ± 0.024	2.45 ± 0.059
SAGGSSSLAIITIKPKEIKSYYNPNNPVVVSEMEFEVDITIYSDNEISPEKVKELIEEIEKAFPGIKSAGGS [r8_306_TrMRF]	2.32 ± 0.18	2.88 ± 0.11	1.31 ± 0.051
